From paper PMC3585324, “InterAKTions with FKBPs - Mutational and Pharmacological Exploration” (PLoS ONE, 2013)

Columns and labels:
[1] = molecular target: T1, purified inactive Akt1 (untagged) (UniProt P31749 1-480); assay: pull-down; FLAG pull-down: FLAG column saturated with FKBP51_FLAG, 20 µM inactive Akt, NETN buffer, 4 °C overnight, eluted with FLAG peptide; Western blot; settings: both partners purified
T1 construct: source: bought: Merck Millipore

[2] = molecular target: T2, GST_Akt1^S473D (UniProt P31749 1-480, S473D); assay: pull-down; GST pull-down: 15 µM FKBPs or Cyp40 with 22 µM GST_Akt1 S473D or GST_Akt1 S473D_ΔPH on glutathione resin, 3 h, 4 °C, NETN buffer (20 mM Tris-HCl pH 8.0, 100 mM NaCl, 1 mM EDTA, 0.5% igepal); AMP-PNP (5 mM), rapamycin (1 µM) or DMSO where indicated; Western blot; settings: both partners purified
T2 construct: Akt1 with the phosphomimetic S473D, called constitutively active; also called purified GST-tagged Akt1S473D; GST-tagged active Akt
T2 sequence (P31749 whole entry S473D): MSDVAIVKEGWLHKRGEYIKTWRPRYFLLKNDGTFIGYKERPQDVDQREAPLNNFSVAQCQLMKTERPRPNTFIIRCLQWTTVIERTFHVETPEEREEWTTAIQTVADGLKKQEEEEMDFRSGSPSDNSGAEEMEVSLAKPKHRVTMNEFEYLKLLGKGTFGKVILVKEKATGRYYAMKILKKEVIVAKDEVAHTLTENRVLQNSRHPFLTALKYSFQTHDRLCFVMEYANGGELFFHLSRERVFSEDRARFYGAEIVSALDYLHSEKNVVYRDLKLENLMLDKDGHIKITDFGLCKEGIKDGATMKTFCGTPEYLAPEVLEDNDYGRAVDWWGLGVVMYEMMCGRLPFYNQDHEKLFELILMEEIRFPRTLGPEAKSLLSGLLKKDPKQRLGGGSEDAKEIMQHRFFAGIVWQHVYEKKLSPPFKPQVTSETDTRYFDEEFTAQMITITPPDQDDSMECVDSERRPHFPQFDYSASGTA

T1 sequence (P31749 whole entry): as the sequence (P31749 whole entry S473D) above, with D473S counted along it

B1: purified FLAG-tagged FKBP51 (natural protein, UniProt Q13451 1-457, looked up)
chain: MTTDEGAKNNEESPTATVAEQGEDITSKKDRGVLKIVKRVGNGEETPMIGDKVYVHYKGKLSNGKKFDSSHDRNEPFVFSLGKGQVIKAWDIGVATMKKGEICHLLCKPEYAYGSAGSLPKIPSNATLFFEIELLDFKGEDLFEDGGIIRRTKRKGEGYSNPNEGATVEIHLEGRCGGRMFDCRDVAFTVGEGEDHDIPIGIDKALEKMQREEQCILYLGPRYGFGEAGKPKFGIEPNAELIYEVTLKSFEKAKESWEMDTKEKLEQAAIVKEKGTVYFKGGKYMQAVIQYGKIVSWLEMEYGLSEKESKASESFLLAAFLNLAMCYLKLREYTKAVECCDKALGLDSANEKGLYRRGEAQLLMNEFESAKGDFEKVLEVNPQNKAARLQISMCQKKAKEHNERDRRIYANMFKKFAEQDAKEEANKAMGKKTSEGVTNEKGTDSQAMEEEKPEGHV
notes: FKBP51, His-tagged full length; also called FKBP51_FLAG; purified FKBP51
- binding result [1]: binds
- binding result [2]: binds

B2: purified FKBP51 ΔFK1_FLAG (domain or fragment, UniProt Q13451 143-457, looked up)
chain: FEDGGIIRRTKRKGEGYSNPNEGATVEIHLEGRCGGRMFDCRDVAFTVGEGEDHDIPIGIDKALEKMQREEQCILYLGPRYGFGEAGKPKFGIEPNAELIYEVTLKSFEKAKESWEMDTKEKLEQAAIVKEKGTVYFKGGKYMQAVIQYGKIVSWLEMEYGLSEKESKASESFLLAAFLNLAMCYLKLREYTKAVECCDKALGLDSANEKGLYRRGEAQLLMNEFESAKGDFEKVLEVNPQNKAARLQISMCQKKAKEHNERDRRIYANMFKKFAEQDAKEEANKAMGKKTSEGVTNEKGTDSQAMEEEKPEGHV
notes: FKBP51 without the FK1 domain; It was the only construct not checked by active site titration; also called FKBP51 ΔFK1 construct; pProExHta_ΔFK1; source: purified
- binding result [2]: binds

B3: purified isolated FK506-binding domain of FKBP51 (FKBP51FK1) (domain or fragment, UniProt Q13451 1-140, looked up)
chain: MTTDEGAKNNEESPTATVAEQGEDITSKKDRGVLKIVKRVGNGEETPMIGDKVYVHYKGKLSNGKKFDSSHDRNEPFVFSLGKGQVIKAWDIGVATMKKGEICHLLCKPEYAYGSAGSLPKIPSNATLFFEIELLDFKGE
notes: detection was with an antibody against the FK1 domain; also called FLAG-tagged FKBP51FK1; source: purified
- binding result [2]: binds

B4: purified FKBP52 (natural protein, UniProt Q02790 1-459, looked up)
chain: MTAEEMKATESGAQSAPLPMEGVDISPKQDEGVLKVIKREGTGTEMPMIGDRVFVHYTGWLLDGTKFDSSLDRKDKFSFDLGKGEVIKAWDIAIATMKVGEVCHITCKPEYAYGSAGSPPKIPPNATLVFEVELFEFKGEDLTEEEDGGIIRRIQTRGEGYAKPNEGAIVEVALEGYYKDKLFDQRELRFEIGEGENLDLPYGLERAIQRMEKGEHSIVYLKPSYAFGSVGKEKFQIPPNAELKYELHLKSFEKAKESWEMNSEEKLEQSTIVKERGTVYFKEGKYKQALLQYKKIVSWLEYESSFSNEEAQKAQALRLASHLNLAMCHLKLQAFSAAIESCNKALELDSNNEKGLFRRGEAHLAVNDFELARADFQKVLQLYPNNKAAKTQLAVCQQRIRRQLAREKKLYANMFERLAEEENKAKAEASSGDHPTDTEMKEEQKSNTAGSQSQVETEA
notes: FKBP52, His-tagged full length
- binding result [2]: binds
